Measurements: publication PMC6828814, “A cryptic hydrophobic pocket in the polo-box domain of the polo-like kinase PLK1 regulates substrate recognition and mitotic chromosome segregation” (Scientific Reports, 2019)

How the values were obtained:
[1] = target: T1, PLK1 (polo-like kinase 1) polo-box domain (Homo sapiens, UniProt P53350); assay: crystal structure (soaking) and competitive fluorescence polarisation with TAMRA-labelled PBIP1 phosphopeptide; type: binding
T1 construct: polo-box domain (PBD), recombinant
T1 sequence (P53350 367-603 limits assumed): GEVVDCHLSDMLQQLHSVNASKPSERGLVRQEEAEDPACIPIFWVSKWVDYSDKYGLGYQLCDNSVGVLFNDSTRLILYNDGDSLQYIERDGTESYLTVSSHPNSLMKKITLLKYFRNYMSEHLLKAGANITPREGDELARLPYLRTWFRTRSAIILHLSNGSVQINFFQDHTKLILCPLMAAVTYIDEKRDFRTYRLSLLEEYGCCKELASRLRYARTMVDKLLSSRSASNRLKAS

[2] = target: PLK1 (UniProt P53350); assay: GFP-Trap co-IP, anti-NEDD1 immunoblot; conditions: reference: GFP-PLK1Wt
[3] = target: PLK1 (UniProt P53350); assay: V5 co-IP, immunoblot; conditions: reference: PBIP1Wt-V5; sites T78

`O=C(Nc1cccc(C(C(=O)O)C(=O)O)c1)c1ccc(C(=O)c2cccc(I)c2)s1` [Polotyrin] gave an IC50 [1] of 115 ± 24 µM.

“NEDD1 (from UniProt Q8NHV4) GFP-PLK1AM (H538A/K540M)” was tested, and the “other: IP band intensity normalised to input” value [2] was “lost; reference 0.2”.

For “PBIP1 (Polo-Box Interacting Protein 1) (from UniProt Q71F23) PBIP1-T78A-V5”, the “other: IP band intensity normalised to input” value [3] was “weaker; reference 2.5”.
